Experimental data published in patent US20200031892A1, “COMPOSITION COMPRISING NEUREGULIN FOR ORGAN PERFUSION, PRESERVATION OR REPERFUSION, AND USE THEREOF” (Zensun (Shanghai) Science & Technology, Co., Ltd., priority 2007, published 2020).

Columns and labels:
[1] = tested on: cardiomyocytes from myocardial infarcted rats; experiment: Relaxation of cardiomyocytes isolated from myocardial infarcted rats treated with neuregulin by osmotic pump; format: in vivo, rat; conditions: myocytes from MI rats treated with neuregulin compared with MI rats treated with vehicle
Protocol: Wistar male rats (Shanghai Animal Center of Chinese Academy of Science), which weighed 200±20 g, were anesthetized by intraperitoneally injecting 100 mg/kg (drug/body weight) of ketamine. The neck and chest were depilated and sanitized. An incision Was made in the middle front neck to expose the tracheae. An 18G catheter overneedle was inserted into the tracheae between the 3rd and 5th cartilage of tracheae. After the needle was drawn out, a plastic cannula was pushed into the trachea 1-2 cm and fixed to connect the Rodent Ventilator (SAR-830/P ventilator—Inspiratory flow rate, 1 ml/100 g/breath; Respiratory rate, 60 breaths/min). Another incision was made on the left front chest. The skin was blunt dissected to expose the fourth and fifth rib, then the fourth rib was cut by elbowed mosquito forceps. The ventilator (as described above) was linked to the cannula and turned on, and the heart was exposed to check the status of lung and heart. The pericardium was rived off to identify the left atria and the pulmonary arterious cone after the heart was exteriorized through the incision. The left ventricle anterior descending coronary artery between them was ligated tight with 6/0 medical suture before the heart was replaced into the thorax. The thoracic wall was stitched. The ventilator was blocked to full fill the lung. […]

[2] = tested on: patients with stable chronic heart failure; experiment: Haemodynamics in patients with stable chronic heart failure after continuous intravenous infusion of neuregulin; format: in vivo, human; conditions: 0.2 μg/kg/hour i.v. infusion for 6 hours
Protocol: 6 patients with stable chronic heart failure were treated with continuous intravenous infusion of neuregulin at 0.2 μg/kg/hour (drug weight/body weight/hour) for 6 hours. A baseline right heart catheterisation was performed and Swan Ganz catheter left in situ to monitor haemodynamics for 24 hours.

B1: NRG: NRG having the sequence of SEQ ID NO:1, which corresponds to amino acids 177-237 of human NRG-1 (protein, listed as Homo sapiens)
chain: SHLVKCAEKEKTFCVNGGECFMVKDLSNPSRYLCKCPNEFTGDRCQNYVMASFYKAEELYQ
In the case of B1, the “relaxation of myocytes (time to relax to half of the maximum length, FIG. 1)” value [1] is reported as “relax much faster”, the “increase of average cardiac output” value ([2]; 2 hours after infusion vs baseline 3.7±1.0 L/min) is reported as 29.7% and the “systemic vascular resistance (SVR)” value ([2]; after infusion (baseline 1679.3±336.3)) is reported as 1199.5±127.6 dynes-sec-cm^−5. The average cardiac output ([2]; at 2 hours after infusion (baseline 3.7±1.0)) was 4.8 ± 0.8 L/min and the “fall of systemic vascular resistance (SVR)” value ([2]; vs baseline 1679.3±336.3) was 29%.
